Reference: patent US20150351390A1, “COMPOSITIONS AND METHODS FOR AUXIN-ANALOG CONJUGATION” (PIONEER HI-BRED INTERNATIONAL, INC., priority 2012, published 2015)

B1: OsGH3-13: GH3 protein, accession EAY81150 (protein, listed as Oryza sativa)
chain: MTSTSSENALDHDHDHDASSPAPATATAAALPPMIPACDPHDGPACLELIEVLTTRAAAVQRRVLAEVLAMNTGTDYLRRFLGDEVAAAAGGEDELAAAFKERVPVVEYEDVKPYIERIANGAPSSLISSKPITELLTSSGTSGGQPKLMPATEEELDRKTFLYNLLVPVMNKYVEGLDEGRGMYLLFVKPEITTASGMVARPVLTSYYKSRHFRRRPDSPYTRYTSPDAAILCPDSRQSMYAQLLCGLARRGEVLRVGAVFASAFLRAVKFLEGHWRALCADIRAGRADPAVVTDAACRGAVDAVLAARADPDLADAIAAECGGASWRGIVRRLWPRTKYIDVIVTGSMAQYIPLLEFYGGGLPLVSTMYASSESYFGINLRPLDPPEEVVYTLLPNMCYYEFIKVEKDGDGEKVRDGEVVDLVGVEVGAYYELVVTTFTGLYRYRVGDILQVAGFHNAAPQFRFVHRRNVVLSVDTDKTSEDDLLRAVTAAKPLLDPLSCVLAEYTAYADTSSIPGHYVLFWELTPSPSPPPPPCHDDANDAADIGEDKDKVAHVMAACCAAVEAGLDSVYRRCRSRDRSIGPLEIRVVAPGAFDALMDMCVSHGSSVNQYKTPRCIKHPDAIAVLEQRVVGRFFSDAVPHWEPLKVDGAAAAPATGSDQ
B2: SmXP_002973755: GH3 protein, accession XP_002973755 (protein, listed as Selaginella moellendorffii)
chain: MNLEHKEREKQALQFIEKVTSEAAEVQSAVLSAILERNAHTEYLKRHGLNGRTDKTSFRQCLPVITYEDLEPEIQRIANGDTSPILSAHPISEFLTSSGTSAGQRKLMPTISEEFERRCLLYSLLMPVMNQYLPGLDQGKGMYLFFIKSEAKTPGGLLARPVLTSYYKSRYFTERPYDPCNVYTSPNETVLCPDAHQSMYCQLLCGLLQRHEVLRMGAVFASGFLRAIRFLETHWRELCDDIRAGGLNELVVDAAARRAVLALMPRPDPALADDIAEQCRKESWAGIIARLWPNTKYIDVIVTGTMAQYIPTLDYYSGGLPLVCTMYASSECYFGINLQPLCPPSEVSYTLLPNMAYFEFLPIKPKSGKSKAPRVPDPSELVELVDVKMGHEYELVITTYAGLCRYRVGDILRVTGFHNSAPQFAFVCRKNVVLSIDSDKTGEEDLAKAVRSATAGIESSYGARLIEYTSYADTTTIPGHYVLFWELRSSSPIPKDVLEECCLAIEESLDSVYRQGRVSDRSIGPLEIKVVKPGTFDQLMDYALSRGASINQYKTPRCVKFTPIVELLNARVVSSYFSPRLPKWSPVRPQWANSNGVH
B3: AIGH3-1: GH3 protein, accession XP_002885948 (protein, listed as Arabidopsis lyrata)
chain: MAVDSNLSSPLGPPACEKDAKALRFIEEMTRNADTVQENLLAEILARNANTEYLRRFNLGGATDRDTFKTKIPVITYEDLQPEIQRIADGDRSPILSSHPISEFLTSSGTSAGERKLMPTIREELDRRQLLYSLLMPVMNLYVPGLDKGKGMYFLFVKSESKTPGGLPARPVLTSYYKSEHFRSRPYDPYNVYTSPNEAILCPDSFQSMYTQMLCGLLDRLSVLRVGAVFASGLLRAIRFLQLHWSRFANDIELGCLDSEITDPSIRQCMSGILKPDPVLAEFIRRECKSDNWERIITRIWPNTKYLDVIVTGAMAQYIPTLEYYSGGLPMACTMYASSECYFGLNLNPMSKPSEVSYTIMPNMAYFEFIPLGGTKAVELVDVKIGKEYELVVTTYAGLCRYRVGDILRVTGFHNSAPQFHFVRRKNVLLSIDSDKTDESELQKAVENASKILHEECGSRVAEYTSYADTSTIPGHYVLYWELLVRDGARQPSHETITRCCLEMEESLNSVYRQSRVADNSVGPLEIRVVRNGTFEELMDYAISRGASINQYKVPRCVNFTPIVELLDSRVVSAHFSPSLPHWTPERRRR

Experiment: LC-MS assay of GH3 conjugation of IAA with Asp or Glu
Format: biochemical
Conditions: conjugation of IAA with Asp by recombinant GH3 protein; IAA-Asp product by LC-MS
Summary of the method: (§1)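 Rxn: 20 mM Tris-HCl pH 8.0, 5 mM MgCl2, 1 mM DTT, 5 mM ATP, 5 mM auxin, 5 mM Asp/Glu, 44–164 μg/mL purified His-GH3; 30° C., 3 h. MeOH quench, supernatant diluted 20×, LC-MS vs conjugate standards.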

First: B1
Second: B2
The “kcat (hrs−1) IAA-Asp” value of the first is lower: 10.812 h⁻¹ for the first, 220.320 h⁻¹ for the second.

With B3 the “kcat (hrs−1) IAA-Asp” value was 436.828 h⁻¹.

Same assay, conditions: conjugation of IAA with Glu by recombinant GH3 protein; IAA-Glu product by LC-MS

First: B1
Second: B2
The “kcat (hrs−1) IAA-Glu” value of the first is higher: 494.321 h⁻¹ for the first, 9.285 h⁻¹ for the second.

For B3, the “kcat (hrs−1) IAA-Glu” value was 14.961 h⁻¹.

Experiment: LC-MS assay of GH3 conjugation of 2,4-D with Asp or Glu
Format: biochemical
Conditions: conjugation of 2,4-D with Asp by recombinant GH3 protein; 2,4-D-Asp product by LC-MS; 5 mM 2,4-D substrate
Summary of the method: as §1

Compared with B1, B2 is higher in “kcat (hrs−1) 2,4-D-Asp” value: 0.639 h⁻¹ for the first, 1.076 h⁻¹ for the second.

In the case of B3, the “kcat (hrs−1) 2,4-D-Asp” value is reported as 2.057 h⁻¹.

Same assay, conditions: conjugation of 2,4-D with Glu by recombinant GH3 protein; 2,4-D-Glu product by LC-MS; 5 mM 2,4-D substrate

First: B1
Second: B2
The “kcat (hrs−1) 2,4-D-Glu” value of the first is higher: 5.237 h⁻¹ for the first, 0.431 h⁻¹ for the second.

In the case of B3, the “kcat (hrs−1) 2,4-D-Glu” value is reported as 0.525 h⁻¹.
